Assay results as given in publication PMC10661118.

How the values were obtained:
[1] = DSP crosslink, soluble vs pellet fractions, WB, HeLa; details: control: DMSO vehicle
[2] = IRBP-SEAP reporter in HeLa, normalised to EV; details: glycan lost; control: WT OTX2, untreated

Substance	other: solubility (aggregation) ([1]; glycan lost)	other: transcriptional activity [2]	other: solubility (aggregation) ([1]; glycan gained)
OTX2: OSMI4	decreases	no change	–
OTX2: Thiamet-G	–	–	increases
